Measurements as given in the supplement of paper PMC9170038.

Test system: MS2 coat protein
Assay: apparent KD of MS2 coat protein; higher = weaker reporter binding
Settings: Eterna round: R107
In short: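 In 100 mM Tris-HCl pH 7.5 with 80 mM KCl and 4 mM MgCl2, and without or with constant ligand, SNAP-549-labelled MS2 coat protein was titrated in twofold steps from 0.7 or 1.5 nM to 3 µM. Per-step times went from 0.8–1.5 h down to 10–20 min. The RNA switches were transcribed on-chip from Illumina sequencing clusters, and apparent KD is the per-design median of normalised cluster binding-curve fits.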

[1] = input ligand: theophylline 20 uM
[2] = input ligand: theophylline 2 mM
[3] = input ligand: tryptophan 2.4 mM

UGUAUGGACUGAAGGAGCGGGUUGAUAACUUGAGGAUCACCCAGGUAAAAGGCGAAAGCCGCCCAGGUAGGUCGCAGUCCAUACU
apparent KD of MS2 coat protein (input ligand: arginine 13.2 mM): 40.2 nM | apparent KD of MS2 coat protein (input ligand: none): 45.6 nM | apparent KD of MS2 coat protein [1]: 54.9 nM | apparent KD of MS2 coat protein [2]: 61.7 nM | apparent KD of MS2 coat protein [3]: 49.2 nM

UGUAUGUGAUCUGAUACCAGAGUGAAUAAACGCGAAAGCGCCUGAGGAUCACCCUGGUAACUCCCUUGGCAGCAGAUCGCAUACU
apparent KD of MS2 coat protein (input ligand: arginine 13.2 mM): 119 nM | apparent KD of MS2 coat protein (input ligand: none): 569 nM | apparent KD of MS2 coat protein [1]: 789 nM | apparent KD of MS2 coat protein [2]: 74.5 nM | apparent KD of MS2 coat protein [3]: 1390 nM

UGUAUGUGAUCUGAUACCAGCGAUGAUAACCUGAGGAUCACCCUGGUAAGGCGAAAGCCUCGCCCUUGGCAGCAGAUCGCAUACU
apparent KD of MS2 coat protein (input ligand: arginine 13.2 mM): 407 nM | apparent KD of MS2 coat protein (input ligand: none): 583 nM | apparent KD of MS2 coat protein [1]: 273 nM | apparent KD of MS2 coat protein [2]: 24 nM | apparent KD of MS2 coat protein [3]: 800 nM

UGUAUGUGAUCUGAUACCAGCUUUGAUAACCUGAGGAUCACCCUGGUAAAGGCGAAAGCCGGCCCUUGGCAGCAGAUCGCAUACU
apparent KD of MS2 coat protein (input ligand: arginine 13.2 mM): 47.3 nM | apparent KD of MS2 coat protein (input ligand: none): 58.5 nM | apparent KD of MS2 coat protein [1]: 56.1 nM | apparent KD of MS2 coat protein [2]: 24.6 nM | apparent KD of MS2 coat protein [3]: 59.7 nM

UGUAUGUGAUCUGAUACCAGUCCAACUGGUAAAAUAUGAGGAUCACCCAUAUAAAAUUGGGACCCUUGGCAGCAGAUCGCAUACU
apparent KD of MS2 coat protein (input ligand: arginine 13.2 mM): 108 nM | apparent KD of MS2 coat protein (input ligand: none): 265 nM | apparent KD of MS2 coat protein [1]: 632 nM | apparent KD of MS2 coat protein [2]: 129 nM | apparent KD of MS2 coat protein [3]: 492 nM

UGUAUGUGAUCUGAUACCAGUGACACGAAAGUGAAUCGCUUGAGGAUCACCCAAGUAAAACACCCUUGGCAGCAGAUCGCAUACU [Full moving switch bubble 1]
apparent KD of MS2 coat protein (input ligand: arginine 13.2 mM): 20.3 nM | apparent KD of MS2 coat protein (input ligand: none): 15.6 nM | apparent KD of MS2 coat protein [1]: 23.5 nM | apparent KD of MS2 coat protein [2]: 25 nM | apparent KD of MS2 coat protein [3]: 15.6 nM

UUAAUGGAGCUUUUAUUUACGAUUUCUGAUACCAGUGUUUCAUUUCACCCUUGGCAGCAGUGACAUGAGGAUCACCCAUGUAAUA [JR_Nu_SSTheophyA_Sub021]
apparent KD of MS2 coat protein (input ligand: arginine 13.2 mM): 30.3 nM | apparent KD of MS2 coat protein [1]: 33.8 nM | apparent KD of MS2 coat protein [3]: 25.9 nM

UUACAACUAAUGGAUACCAGCCGCGUGCUAGUGGUAGCAUACAUGAGGAUCACCCAUGUCGGCCCUUGGCAGCCACGCCCAUGCU [theeternabot_exclusion_MS2_Theo_B_2]
apparent KD of MS2 coat protein (input ligand: arginine 13.2 mM): 13.7 nM | apparent KD of MS2 coat protein [1]: 21.7 nM | apparent KD of MS2 coat protein [3]: 14.2 nM

UUAUAUUAUCGAAGGAGCGUCACAUGAGGAUCACCCAUGUACAUGAGGAUCACCCAUGUGUGGCAGGUAGGUCGCGAUAUAUAAC [Exclusion Arginine B GF9]
apparent KD of MS2 coat protein (input ligand: arginine 13.2 mM): 120 nM | apparent KD of MS2 coat protein [1]: 250 nM | apparent KD of MS2 coat protein [2]: 301 nM | apparent KD of MS2 coat protein [3]: 327 nM

UUAUGCAGGUCGGCCGCCACUACACACAUGAGGAUCACCCAUGUAGUUACUGGGUGAAGUGGCAGUAGGACCGGGACCUGCAUAU [Brourdmod05]
apparent KD of MS2 coat protein (input ligand: arginine 13.2 mM): 84.5 nM | apparent KD of MS2 coat protein [1]: 449 nM | apparent KD of MS2 coat protein [2]: 832 nM

UUAUUUAUAAUGGAUACCAGUGCUGUGGCCCGGCAUCCUGACAUGAGGAUCACCCAUGUGUACCCUUGGCAGCUGUUAUGGGUUU [XTheo B #20]
apparent KD of MS2 coat protein (input ligand: arginine 13.2 mM): 20.7 nM | apparent KD of MS2 coat protein [1]: 28.3 nM | apparent KD of MS2 coat protein [3]: 19.3 nM

UUCAAAGGGAACGGUGCUGGUGACAGAGAUACCAGCGCGGUAACGCGCCCUUGGCAGCUCAGAACAUGAGGAUCACCCAUGUAAU [Exclusion Theophylline A GF23]
apparent KD of MS2 coat protein (input ligand: arginine 13.2 mM): 15.9 nM | apparent KD of MS2 coat protein [1]: 20.7 nM | apparent KD of MS2 coat protein [3]: 15.4 nM

UUGGUACAUGAGGAUCACCCAUGUACUGAAGGAGCGGGACGAAUCUCAGGUAGGUCGCAGACAUGAGGAUCACCCAUGUAUGGCU [Exclusion Arginine A GF 17]
apparent KD of MS2 coat protein (input ligand: arginine 13.2 mM): 10.2 nM | apparent KD of MS2 coat protein (input ligand: none): 12.7 nM | apparent KD of MS2 coat protein [1]: 14.6 nM | apparent KD of MS2 coat protein [2]: 13.1 nM | apparent KD of MS2 coat protein [3]: 12.3 nM

UUGUAUAUGCGAAGGAGCGGGAAAUAUAUAUAUAUAAUCCUAACAUGAGGAUCACCCAUGUCCCAGGUAGGUCGCGCAUAUAUGG [12.F]
apparent KD of MS2 coat protein (input ligand: arginine 13.2 mM): 80.5 nM | apparent KD of MS2 coat protein (input ligand: none): 69.5 nM | apparent KD of MS2 coat protein [1]: 80.7 nM | apparent KD of MS2 coat protein [2]: 87.9 nM | apparent KD of MS2 coat protein [3]: 78.3 nM

UUGUUGUUUGGAAGGAGCGUGUAAGAUUAAGAACAUGAGGAUCACCCAUGUUGUAAGGUAGCACAGGUAGGUCGCCGGGUGGUGG [11.T]
apparent KD of MS2 coat protein (input ligand: arginine 13.2 mM): 19.3 nM | apparent KD of MS2 coat protein (input ligand: none): 14.4 nM | apparent KD of MS2 coat protein [1]: 24.4 nM | apparent KD of MS2 coat protein [2]: 17.6 nM | apparent KD of MS2 coat protein [3]: 15.1 nM

UUUGAAAUAACAGAUACCAGCGUGUUAUAAAACAUGAGGAUCACCCAUGUAGUGAUCAAGCGCCCUUGGCAGCUGGUAUUUUAGG [7.F]
apparent KD of MS2 coat protein (input ligand: arginine 13.2 mM): 118 nM | apparent KD of MS2 coat protein [1]: 208 nM | apparent KD of MS2 coat protein [3]: 172 nM
